In US20030175929A1 (ORIENTAL YEAST, published 2003):

B1: human creatine kinase M type subunit (enzyme)
chain: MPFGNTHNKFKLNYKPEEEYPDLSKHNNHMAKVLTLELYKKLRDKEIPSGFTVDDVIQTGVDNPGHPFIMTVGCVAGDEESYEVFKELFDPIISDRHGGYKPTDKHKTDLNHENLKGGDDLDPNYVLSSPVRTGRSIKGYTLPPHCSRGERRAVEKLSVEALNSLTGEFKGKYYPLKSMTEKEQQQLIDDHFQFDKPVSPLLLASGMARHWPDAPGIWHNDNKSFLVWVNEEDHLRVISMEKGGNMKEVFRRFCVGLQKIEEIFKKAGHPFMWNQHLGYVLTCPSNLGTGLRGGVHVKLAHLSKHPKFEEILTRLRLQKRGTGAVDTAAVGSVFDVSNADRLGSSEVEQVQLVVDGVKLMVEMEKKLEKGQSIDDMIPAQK
notes: Co-expressed with the CK-B subunit from the single plasmid pTRP-hCKMB; also called CK-M subunit; CK-M
B2: human creatine kinase B type subunit (enzyme)
chain: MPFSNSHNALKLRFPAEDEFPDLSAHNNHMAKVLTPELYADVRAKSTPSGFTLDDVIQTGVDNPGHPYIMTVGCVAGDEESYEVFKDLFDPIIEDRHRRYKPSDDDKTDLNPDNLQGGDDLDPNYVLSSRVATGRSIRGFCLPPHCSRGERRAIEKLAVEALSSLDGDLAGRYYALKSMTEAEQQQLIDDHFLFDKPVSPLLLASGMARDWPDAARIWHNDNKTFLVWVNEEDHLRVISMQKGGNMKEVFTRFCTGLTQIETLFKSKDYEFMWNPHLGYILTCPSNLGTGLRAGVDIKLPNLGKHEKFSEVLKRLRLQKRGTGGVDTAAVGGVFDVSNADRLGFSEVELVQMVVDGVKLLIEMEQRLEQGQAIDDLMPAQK
notes: Co-expressed with the CK-M subunit from the single plasmid pTRP-hCKMB; also called CK-B subunit; CK-B

What was measured:
[1] = target: the molecule itself; test: co-expression in E. coli; Q-Sepharose separation of dimeric CK isozymes (homodimer)
Protocol: (§1) The cells thus obtained were collected and suspended in a 50 mM phosphate buffer (pH 7.5) containing 5 mM of mercaptoethanol. After disrupting the cells by ultrasonication, the supernatant was referred to as a recombinant CK extract. From this extract, CK was recovered as a precipitate by 70%-saturation ammonium sulfate salting out. The precipitate thus salted out was dissolved in 1.5 M ammonium sulfate (pH 7.5) and subjected to hydrophobic column chromatography by using a Buthyl-Toyopearl C650 gel (manufactured by Tosoh). The CK activity was eluted at 1.5-0 M-gradient (pH 7.5) ammonium sulfate elution. The CK activity elution peaks were combined, concentrated by using an ultrafiltration membrane (YM10, manufactured by Amicon) and then dialyzed against a 50 mM phosphate buffer (pH 7.5). Fractions eluted by the hydrophobic chromatography were adsorbed by a Q-Sepharose column (manufactured by Pharmacia, Sweden) and thus it was attempted to separate CK isozymes.
(§2) As a result, the CK activity was separated into the MM type (unadsorbed fraction), the MB type (elution peak 1) and the BB type (elution peak 2). […] It was thus found out that CK-MB was expressed at a high dose in this recombinant strain. It could be also confirmed that three human recombinant CK isozymes could be prepared by using this expression strain alone. […]

[2] = target: B2; test: co-expression in E. coli; Q-Sepharose separation of dimeric CK isozymes; MB fraction purified to electrophoretic homogeneity by Sephacryl-S200HR gel filtration
Protocol: as §1, §2

B1: binds [1]; binds [2].

B2: binds [1].
